Molecular target: gp120
Assay: ELISA; geometric mean over gp120 from 7 HIV strains

| EC50 [nM] | Binder |
| --- | --- |
| 1.65 | PGT121.61 (antibody) heavy: QMQLQESGPGLVKPSETLSLTCSVSGASISDSYWSWIRRSPGKGLEWIGYVHKSGDTNYNPSLKSRVHLSLDTSKNQVSLSLTGVTAADSGKYYCARTLHGRRIYGIVAFNEWFTYFYMDVWGTGTQVTVSSASTKGPSVFPLAPSSKSTSGGTAALGCLVKDYFPEPVTVSWNSGALTSGVHTFPAVLQSSGLYSLSSVVTVPSSSLGTQTYICNVNHKPSNTKVDKKVEPKSCDKTHTCPPCPAPELLAGPDVFLFPPKPKDTLMISRTPEVTCVVVDVSHEDPEVKFNWYVDGVEVHNAKTKPREEQYNSTYRVVSVLTVLHQDWLNGKEYKCKVSNKALPLPEEKTISKAKGQPREPQVYTLPPSREEMTKNQVSLTCLVKGFYPSDIAVEWESNGQPENNYKTTPPVLDSDGSFFLYSKLTVDKSRWQQGNVFSCSVLHEALHSHYTQKSLSLSPGK light: SDISVAPGETARISCGEKSLGSRAVQWYQHRAGQAPSLIIYNNQDRPSGIPERFSGSPDSRPGTTATLTITSVEAGDEADYYCHIWDSRVPTKWVFGGGTKLTVLGQPKAAPSVTLFPPSSEELQANKATLVCLISDFYPGAVTVAWKADSSPVKAGVETTTPSKQSNNKYAASSYLSLTPEQWKSHRSYSCQVTHEGSTVEKTVAPTECS |
| 1.79 | PGT121.60 (antibody) heavy: QMQLQESGPGLVKPSETLSLTCSVSGASISDSYWSWIRRSPGKGLEWIGYVHKSGDTNYNPSLKSRVHLSLDTSKNQVSLSLTGVTAADSGKYYCARTLHGRRIYGIVAFNEWFTYFYMDVWGTGTQVTVSSASTKGPSVFPLAPSSKSTSGGTAALGCLVKDYFPEPVTVSWNSGALTSGVHTFPAVLQSSGLYSLSSVVTVPSSSLGTQTYICNVNHKPSNTKVDKKVEPKSCDKTHTCPPCPAPELLAGPDVFLFPPKPKDTLMISRTPEVTCVVVDVSHEDPEVKFNWYVDGVEVHNAKTKPREEQYNSTYRVVSVLTVLHQDWLNGKEYKCKVSNKALPLPEEKTISKAKGQPREPQVYTLPPSREEMTKNQVSLTCLVKGFYPSDIAVEWESNGQPENNYKTTPPVLDSDGSFFLYSKLTVDKSRWQQGNVFSCSVLHEALHSHYTQKSLSLSPGK light: not shown |
| 1.57 | PGT121.42 (antibody, V domains shown) VH: QMQLQESGPGLVKPSETLSLTCSVSGASISDSYWSWIRRSPGKGLEWIGYVHKSGDTNYNPSLKSRVHLSLDTSKNQVSLSLSSVTAADSGKYYCARTLHGRRIYGIVAFNEWFTYFYMDVWGKGTQVTVSS VL: SDISVAPGETARISCGEKSLGSRAVQWYQHRAGQAPSLIIYNNQDRPSGIPERFSGSPDSPFGTTATLTITSVEAGDEADYYCHIWDSRVPTKWVFGGGTTLTVLG |
| 2.14 | PGT121.65 (antibody, V domains shown) VH: QLQLQESGPGLVKPSETLSLTCSVSGASISDAYWSWIRRSPGKGLEWIGYVHKSGDTNYNPSLKSRVHLSLDTSKNQVSLSLTGVTAADSGKYYCARALHGRRIYGIVAFNEWFTYFYMDVWGTGTQVTVSS VL: SDISVAPGETARISCGEKSLGSRAVQWYQHRAGQAPSLIIYNNQDRPSGIPERFSGSPDSRPGTTATLTITSVEAGDEADYYCHIWDSRVPTKWVFGGGTKLTVLG |

— patent publication US20210155676A1 (published 2021)
